This passage reports protein production results from a protein production outcome set (Wang et al. 2014).

The nature of this series: label from the status in PepcDB records.
As to “MSNYPLHQACMENEFFKVQELLHSKPSLLLQKDQDGRIPLHWSVSFQAHEITSFLLSKMENVNLDDYPDDSGWTPFHIACSVGNLEVVKSLYDRPLKPDLNKITNQGVTCLHLAVGKKWFEVSQFLIENGASVRIKDKFNQIPLHRAASVGSLKLIELLCGLGKSAVNWQDKQGWTPLFHALAEGHGDAAVLLVEKYGAEYDLVDNKGAKAEDVALNEQVKKFFLNNV”, the protein production result was “not failed”.

For “MSYIRLVTWNVDFDSPFNYERFTAIAEEVLGAKPGVVLFQEVSDLPFSSWQGEKEQSTITSARQHDSCYKVLLRRLEALYEPIVDLGLPSEQAYFVMAFVDRSKYRVHGYEYTEFENSSQGRGLLAIQLEPRDMCGDFKFRVLTSHLESGTACSEVRVQQMRQIAYEMLEGDTPAIFAGDTNFREKEKAGFEKEIAKAIGSEEMRLFDLFVEVGEPSHLRFTWDTRTNTNKVKELPPRFRPRARFDQVLFTRPFQANAMRLLGRERLGHAVFPSDHYGIYGELRF”, the protein production entry is given as “failed”.

Consider “STTEEESLSAAEEGYNVQRDYWRQAEESDGFDIENIKLPPGMHGRVMGLITYNCQLCYRYPFPVLVKLYAKFGLHRYNLIKGTSFELAALMKFNMLQNYMSSFYMTLLAHDPDPAASSSQKTFQVRVDEQQFGTLGINCSIARPKHEGDLLEVSTKTPFIPHFHGGALGDGIFKGELPDCLSDDALNALMEAVSKDELPEHVLDDALYARAGGIFQGELPDWPSDDALNDGKRFYMLKESEWQATDWISMYLELVITTTDRSITEPEVLSKLEIVKVAIETATKDEEPSNERLKAYRAHFYITFKGLAEPRAPRQVFEIGEHVERQAIVRRVMGHRGDLTLKGKLCGGQYIKRRSLALKSGEESPNCKKQTRVG”, for which the protein production entry is listed as “failed”.

With “WTGEDSAEPNSDSAEWIRDMYAKVTEIWQEVMQRRDDDGTLHAACQVQPSATLDAAQPRVTGVVLFRQLAPRAKLDAFFALEGFP”, the protein production result is “failed”.

Regarding “MTDNETPAEDQVGDRVAGLLLAAGGGRRLGGRPKALLEHRGHPLVEHAVEVLRTAGCARVHVVLGARAADVRARAALDGCTLVDNPDWEQGMGSSLRAGLGSLAATGARAALVCLVDQPGIGAAATARVRARFRDETSLASAAYAGVRGHPVLLGAAHWAGVAATASGDRGARAYLREHEAEIALVECGDVARPYDIDTEADLVHLELEHHHHHH”, the protein production result is recorded as “not failed”.

In the case of “MAQSETVERILDAAEQLFAEKGFAETSLRLITSKAGVNLAAVNYHFGSKKALIQAVFSRFLGPFCASLEKELDRRQAKPEAQHATLEDLLHLLVSQAMAVKPRSGNDLSIFMRLLGLAFSQSQGHLRKYLEEVYGKVFRRYMLLVNEAAPKLPPIELFWRVHFMLGAAAFSMSGIKALRAMAETDFGVNTSTEQVMHLMVPFFAAGMRAESGIDDPLLAGAQLRPRNKTPAKA”, the protein production entry is given as “not failed”.

On to “MKYMIPDEEFIRREGVPITKEEIRAVSIGKLNLNKDDVVVDVGCGSGGMTVEIAKRCKFVYAIDYLDGAIEVTKQNLAKFNIKNCQIIKGRAEDVLDKLEFNKAFIGGTKNIEKIIEILDKKKINHIVANTIVLENAAKIINEFESRGYNVDAVNVFISYAKKIPSGHMFLAKNPITIIKAVR”, for which the protein production entry is “not failed”.

Take “RAELRGVVRVAASEVVGAEVLPPLVARLRQACPNIVIELMLSNRFQDLLHREADIAVRMVAPQQEQLIARRLGRIELGLHATAAYLTRQGLPATLDDLASHALIGFDSATPLVRRALQAYPRFQREAFAMRTDSDLAQLSLIRAGA”: the protein production entry is reported as “failed”.

In the case of “MTEAMIRKKPGMASVKDMPLLQDGPPPGGFAPVRYARRISNTGPSAMAIFLTVSGAFAWGMYQVGQGNKIRRALKEEKYAARRAILPILQAEEDERFVSEWKKYLEYEADVMKDVPGWKVGENVYNSGRWMPPATGELRPDVW”, the protein production result is given as “failed”.

With “MWVDGMAKVVEVGRICVKTRGREAGRKCVIVDIIDENFVLVTGPKSLTGVRRRRVNIDHIEILDKKVDIQKGASDEEVLKALEEAGLADFMREPVRIARITPFTLLEHHHHHH”, the protein production result was “not failed”.

As to “LRESEARLKGIAGNVPGLVFRLERDPAEGDLEFPYISEGSEALVGYAPSEIQHPQMGLRNLVHPEDRADYHRVQDLALASDQDWSWQGRILTRQGEQRWADIKASARHLGNGQVVWDGVVWDITQGKRAELALAKSQEQLRELSAHLESVREEEKARIAREVHDELGQM”, the protein production result is “not failed”.

Consider “MKVAVIGSGISGLGSAYVLANQGVKEVVLYEKEESLGGHAKTVRFDGVDLDLGFMVFNRVTYPNMIEFFENLGVEMEVSDMSFAVSLDNGKGCEWGSRNGVSGLFAQKKNVLNPYFWQMIREIVRFKEDVLNYIEKLEGNPDIDRKETLGEFLNTRGYSELFQQAYLVPICGSIWSCPSDGVLSFSAYSVLSFCCNHHLLQIFGRPQWLTVAGRSQTYVAKVRAELERLGCKIRTSCDVKSVSTSENGCVTVTSGDGSEEVFDRCILAMHAPDALRLLGEEVTFDESRVLGAFQYVYSDIYLHHDIDLMPRNKAAWSAWNFLGSTEKKVCVTYWLNILQNLGENSEPFFVTLNPDETPKKALLKWTTGHPVPSVAASIASQELHQIQGKRNIWFCGAYQGYGFHEDGLKAGMAAARGLLGKETALLNNPRHMVPSLTETGARLFVTRFLGQFISTGSVTILEEGGTMFTFGGKDSTCPLKSILKIHSPQFYWKVMTQADLGLADAYINGDFSFVDKESGLLNLIMILIANRDTKSNLTKKRGWWTPMFLTAGLASAKYFLKHVSRQNTLTQARRNISRHYDLSNELFGLFLDDTMTYSSAVFKSDDEDLRTAQMRKISLLIDKARIEKDHEVLEIGCGWGTLAIEVVRRTGCKYTGITLSIEQLKYAEEKVKEAGLQDRITFELRDYRQLSDAHKYDRIISCEMLEAVGHEFMEMFFSRCEAALAEDGLMVLQFISTPEERYNEYRLSSDFIKEYIFPGACVPSLAKVTSAMSSSSRLCIEHVENIGIHYYQTLRLWRKNFLERQKQIMALGFDDKFVRTWEYYFDYCAAGFKTRTLGDYQLVFSRPGNVAAFADSYRGFPSAYCVS”, for which the protein production result is listed as “failed”.

Consider “MSTYDTAVLDDTLVSCLSQLIGAEHIDTLTLEGRFEITRIAAALSGRPGPAPRAILMSGLQGSGKTTLARALEAAGFRRLCPDEEMFRRYGHYGRDFPRGEFRVREAPVLKDIALELQELLTAGHEVVVDHGFWTREERAQWAMTVMEAGGKPVLIYLPVPHEVRWDRIRKRNEQSLVDANSIEFSEEDLLRHAGRFSPPTDDEPHIVYDGQPDSVLADIQLSRHFDALEHHHHHH”, for which the protein production entry is “failed”.

With “MNYLVLLIPVLFSFHQIFVRLGSREAETISGIYVSLLASTIIFIPSVANPTLDGMFLLYMSLAGVLHFFVARICFYHAISRIGANLSAPLSATRVFFAALLGIFVGEYLTLRVVVMSLLIFAGIVLISRPKGKADAFGVTLGILTGLFSALSSYFVKFGNAVDYNPLFAIFLGFALSTILMTPLAVRKDLSHTKFYLAAGVTVGIAHLLRYVVLKDVPVTVVEPITSSYPLFTLLLSAIFLREGEIFTLRSITGTLLILGGIYVYYA”, the protein production entry was “failed”.

“MDKLEPLRINMRHGSILAVHFFIPGKPTICHQTARTLIRHIPFQCLLRVTSQNLDVGEFVKIYHEEKAEVKSSSLAKKIPKTSNLLASTSDKLELARAITTFKEEEIRHLAEPDDVDFVLTLDVADVGVSKIVIDVGSLIDLLFLSTLGENGK”: the protein production entry was “failed”.

“MKLATKKNGTRDGLLMVVSKDLTRCVPATEVFHPRNLAPTMQVALDNWEAVAPQLEEIYTALNNGTVAGFEEFEAHYCESPLPRAYQWADGSAYVNHVELVRKARGAEMPESFWTDPLMYQGGSDAFIGPCDNIEFASDEWGIDFEGEVAVVTGDVPMGASIAEAQESIRLIMLVNDVSLRGLIPAELAKGFGFFQSKPSSAFSPVAVTPDELGDEWYENKVHLPLVSTYNHKPFGRPNAGVDMTFDFADLIVHATKTRPLSAGAIIGSGTVSNKQGTDHGTSIEEGGVGYSCIAEVRMIETIRDGKPTTNFMSFGDSIKLEMFDVEGNTIFGAIDQQVSQYLKH”: the protein production result is recorded as “failed”.

Consider “MKKAIYLLILCIFGLFSVYFTYAENISDISNTTSKNISSSNISHNNIIYSNINYNEILYIIVKNNTAYVKDVINGTNNPYHIKSAGIILYEKIYGYNYSNLLYRNSSNSLIFYYNFSVDKINYTINITIPQIEDYVGSLGGPIRMRIPPNNVKIIIVAENKLAETNGKYILEYNKTDKKVISLIYLDNVSSICNIYYTKFFNSSEFYGYAVANVTSITENRTSYTIKNPKGTFTFDRKYNVFVSNKTAYLKEPYLYVKLYNSTIDDIIILENNKISENSTKFMSNYLLSFIGIIIGFGIIGLAIYLSKRGRK”, for which the protein production entry is “failed”.

For “DDAGKTAIYWLGYDLPPEIPTIVILHTITGTPSSMRELVRDLHQHTGWRIALCVRRGHADLEFSVPRFNLFGSVSDLKQQLDYIQNHFPQSNLYGVGSSAGSGLLVRYLGEEADEAYFKAAFAFCPGYNTETGFEKVHPVYSQYMAKKLLKTFVYKYIDSWQHVENLEEVLSSKNLTEFHLRYYKLAGFKNYQEYSLATNPMHVFKNIKIPLMVLNSQDDPVCHIDNFEPYIPEIQKLSNIVVVTTKKGSHCAFYEGWTPQSWASRLMANYFLQHHQ”, the protein production entry is on record as “failed”.

For “MAIQKGDFIKLNYTGRFEDGRIFDTTDEELAKKEEIFNPRGLYGGDVVIVGAGHTIEGLDEDLEGKEAGYSSTVTIPPEKAFGLSNSKLVETVSITKFQDRNVHPGLPVELEGKRGVVSRVIGRKVTVDFNSPLAGKTVSYEYTIEKLLEDDVEMIQGLLALYTGMRDMEVEITDGVAKIYVPTGLTFNQRWLMAKNRVVSELFKYAGLKEVQLIEKLTAEAEAPVPAEPEVEAEAEAEAEVEAEVKEETSESHE”, the protein production result is “failed”.

On to “MARDALTDALTVGELRRRVHALVLGKRQRVYSGAMFLVEVVHHPELSAMLGLEDNKLLLAMIAQRLQMQSDYFQVARHSSDSFMVWAPDLDPRSARDVAPEVLDALSQPYELRGQPLIVGFRLSGALYAQHGACFDELERSLHIAMLHLDESAGAAWNMFEPSMLEHQRHYQGLEHHHHHH”, for which the protein production result is listed as “failed”.

Turning to “MGSSHHHHHHSSGLVPRGSPQQLVERLQEEKRIEAQKRKERQEAHLYMQVQIVAEDQFCGHQGNDMYDEEKVKYTVFKVLKNSSLAEFVQSLSQTMGFPQDQIRLWPMQARSNGTKRPAMLDNEADGNKTMIELSDNENPWTIFLET”, the protein production result was “not failed”.

In the case of “MSHDRSVNVSHDAVIAKPERGTMLQSFSPRSHGSKGYSLPQDSEENRGSVGQSAGQSSTSVVDQVRSPADDAGVTSSSTICPAPVCRQFWKAGSYNDELSSKSQQPNGKNYLHVHPMFLHSNATSHKWAFGAVAELLDNAVDEIQNGATFVIVDKTTNPRDGATALLIQDDGGGMDPQAMRHCMGFGFSDKKSDSAIGRYGNGFKTSTMRLGADVIVFSRHSKNQTLTQSIGLLSYTYLTRTGHDRIVVPILDYEFNASAGEFKTLQDREHFISSLSILLEWSPFSTEAELLQQFDDVGPHGTKVIIYNMWLNSDAKLELDFDSVAEDILIEGSIKKTGSKIVNDHIASRFSYSLRVYLSILYLRIPETFKIILRGKVVEHHNVADDLMHPQYILYKPQAAGSEEALVVTTIGFLKEAPKVNLHGFCVYHKNRLIMPFWQVINYSSSRGRGVVGVLEANFVEPTHNKQDFEKTVLLQKLENRLKEMTVEYWSCHCVLIGYQVNKKPRLQIPQKVQPAGRQALSPPPGFQAVFPQGNTTSLPRVSTQPVLLEKRKEHPDSVASAALKRKVGNDDFTVPGHIRVEQFIHGSASQSQDIETVKLMEENKKLRAKCLDRKVRSQNLEVKAMNLRSELENYKSEYERLMVELQALDLVKDEHRRNVNT”, the protein production entry is on record as “failed”.

Regarding “VDVENPILITSFPGIGLVGTIATAHYIMELKLESIGIVDSRLLPPVASLYEGVILPPVRVYQSADLGFVLIHSDVPIIPQAAIDMSKKIVQFAAEINARRVYSFAGVATFEDKKRVFAAATSKELLEEVKDHAEIFKTGTISGIAGSIMNECVAAKMPGIVLLGETLGFNPDPRAAASLIEAVNKIMNWNVSVEKLLKEAEMIEAQMQKLAEQARMQEERKEEFPMYG”, the protein production entry is listed as “failed”.
